# Measurements taken from the DeepSol protein solubility set.
# Test: soluble on expression in E. coli; label from the status in PepcDB or PDB records
row,Sequence,soluble on expression in E. coli
1,MMNQLRVTRKEPVKIRIQRKTSQNHAKGIEEMEMAVAVGVKMGQDAVEGNWKRKIIPKKTAIREILKSDEEITVRHLKIGLKSRRLPSCLIRKEPKDNNVSYEETGEGEYFEEENRKNSNNANSSNSRNTGRGNKGGKERESLNDNESSNEETEGRRSVKKTNTLNEDNNGNSIRKESNLSNDEETDEVVDTHRINTEDDEEDEEKPPTEKGTPKRKDRKSDSRSTSKGFGSGGRGRAEYTEDGDDDESNRRSVNFEKDGNGRMVKTETERSSTHAQDYDKKGSKKKKHRVSENGSEEEEVSTSFSSSSSKSSSSSSLSRRTTWDGNNNNTNRRRRNRFD,not soluble
2,MMNTDNRLLTRESSEHIREFFSTVERLSVSMERLFAGRSPAMAGENFYTDRELAEKLKVSRRSLQQYRDSGLLAFTRLGGKILYRSSDIEKLLDGCYREARTRPEEL,not soluble
3,MMRISEKGITLIKEFEGCSLKAYPDPGTGGDPWTIGYGWTHSVDGKPVKPGMMIDEATAERLLKTGLVGYENDVSRLVKVKLTQGQFDALVSFAYNLGARTLSTSTLLRKLNAGDYAGAADEFLRWNKAGSKVLNGLTRRREAERALFLS,not soluble
4,MMSDRHFQGNRIRLRAPEPEDLEVMFRFENATDVWEMSNTTGPYSRFQLKQYIEQTQNDLFADRQLRLMIENGNRQVVGIVDLCSFDPLHNRAEVGIMVDKSCRRQGIGRNALALLEEHCFRYLGIHQLFAYIAVENLPSRRLFAACGYKESAVLKEWAHTFGGGYTDVLVVQKLNLS,not soluble
5,MMSIFRKLMPREDRFFDMFSKHSETVIKAAAALDQLLSGIDVEKNCDLIVALENQADDITREVLLAVRRSFITPFDRGDIKDLIQSMDDAIDMMHKTVKTIRLFEQSEFDPLMKEMGHEIVRAAGLIAEAIPLLNKVGANAQRLSAIAEEVTRVEGRSDDLHDQGLKDLFRRHGANGNAMAYMIGSEIYGELEKVVDRFEDVANEISGIVIENVLEHHHHHH,soluble
6,MMTMMATFLDVIDQKARSHYDEGKGLALRSLDPEADAAQLQQWFSMDYARFWSMQDSSVHQVRDFYTALCSSGHAGAWLGLHHGRAAFLVECYDPARDQVGEHYCVRPGDLGMHLLIAPPTEHIPGFSRAVFALVMRFMFDRLHAARVVVEPDVNNTKIHALNLSMGFVYAGLARFREKTASLAFCTRAQFEQAQRQELTQ,not soluble
7,MMTYEYILVRYGEMTTKGKNRSKFVSTLKDNVKFKLKKFPNIKIDATHDRMYIQLNGEDHEAVSERLKDVFGIHKFNLAMKVPSELEDIKKGALAAFLQVKGDVKTFKITVHRSYKHFPMRTMELLPEIGGHILENTEDITVDVHNPDVNVRVEIRSGYSYIMCDERMGAGGLPVGVGGKVMVLLSGGIDSPVAAYLTMKRGVSVEAVHFHSPPFTSERAKQKVIDLAQELTKYCKRVTLHLVPFTEVQKTINKEIPSSYSMTVMRRMMMRITERIAEERNALAITTGESLGQVASQTLDSMHTINEVTNYPVIRPLITMDKLEIIKIAEEIGTYDISIRPYEDCCTVFTPASPATKPKREKANRFEAKYDFTPLIDEAVANKETMVLQTVEVVAEEEKFEELF,not soluble
8,MMVYPVKHSPLLRQPEHFIARDELKALVQKVTHNLVNIKDETGEFLLRLDDGRVIDTKGWAGWEWTHGVGLYGMYHYYQQTGDQTMRKIIDDWFADRFAEGATTKNVNTMAPFLTLAYRYEETRNPAYLPWLETWAEWAMNEMPRTDHGGMQHITLAEENHQQMWDDTLMMTVLPLAKIGKLLNRPEYVEEATYQFLLHVQNLMDKETGLWFHGWSYDGHHNFANARWARGNSWLTIVIPDFLELLDLPENNAVRRYLVQVLNAQIAALAKCQDESGLWHTLLDDPHSYLEASATAGFAYGILKAVRKRYVERHYAQVAEKAIRGIVKHISPEGELLQTSFGTGMGHDLDFYRHIPLTSMPYGQAMAMLCLTEYLRNYF,not soluble
9,MMYALIVCNGSIIDYSFYRKFFDEADFIVCADGGALHLQRLGIKPDVLLGDFDSIESEHLEYYMKQNVEILKFPAEKDMTDTELAVNTAIDRGYKNIVIIGGTGTRLDHTLSNIFLLKLMLDRGVKGRIINEYNEMFLINDSTEIEAEDGCYLTLLPLTSKVEGITTEGLYYPLRGEAIEMGSTRGVSNCFVEKKARISITSGILIAIKTRE,not soluble
10,MNAAQVQALIRMGLPMAEDIDFRVERLDERHALARIPFHGKLVRPGGTLSGPTIMALADAAMYAVILGRLGAVEMAVTSNLNINFLSKPRPEDLLAEASILKLGRRQVVCEVGVFSQSNEEDLVAHVTGTYALPLLEHHHHHH,soluble
11,MNAEERFDRITRLTRRIFALPICVVTLVDASRQWFKSCQGLEVTETSRDISFCGHAINHDGIFIVNDAQMDPRFHDNPLVTQSPHIRFYAGYPLTIRGEYRVGTLCLIGNEPREFSADDIETLTDLGQMVEAELLSISLNTLDPLEHHHHHH,not soluble
12,MNAGKEFNYYTYQSDSSQGSLQKAPDENTDYFTHKMNSYLPFDMSTLYANQPTEKIQILQEIYDTERTYVKALTIVDEIFIQQLNLWCPKSKKCFRSMFGEISAICKTHQILLESLQCKPIAEVFTKFVPFLKLYTSYASHYPNSLKIFAKLMSRNDFRKALTKIEEDPRVDGKKLQTYLIMPIQRIPRYIMLIQNLMNYSTEKDDMTNLYKALSGMQGLSDQIQSCMTAYENGERLLQIQLNFGLDGHILEPGRVLLKEGMLYKRELNGSANYQETVVFLFNDILLYGIKRISVMPLCKYEPSAILSLRHCIVQLDDIGGSIFIRCGDVGVDFTAYSLGGVTEWYNEICDAIDNAKKLRDTLRKESFKQKSLIFDKGFWQRNRDKLRNMITADMTGNISRVLTRKKPAPKLEESDFLRGQWTTSTIASNQRKRKVATLEDEEEDVFNMLSSPNLSQRKRKATLQENTPSGVGWTASPRSSSFRKRRASTLRNKNADVTDGNNYLSHLVLNDVTMTQPYTGLNAFVGTPKSRTPTDDDYDSDRDYVWTDDEEFVSDDKKIPIRRVASYDEEDRRPRDFSEVRRSVASEPPRRHLAVDDIRKLSYQQRSLEPFNMVTEDDDEDDIIDIKVKGERPRPWWETESAPPAIKNQKSSIIDSIRNSCAIM,not soluble
13,MNALTALSPLDGRYASKCDALRPFLSEFGLIHARVTVEVRWLQALSNHAGIIEVAPFSTETNAALDSIVANFSEDDANRIKEIERTTNHDVKAVEYFLKEKIAGLDELKNAGEFIHFACTSEDINNLSHALMLKNGREVLVSSMKQILNAIAALATTHAEQPMLSRTHGQTASPTTLGKEMANVAYRLARQIKQFENVELLGKINGAVGNYNAHLSAYPDIDWAAHSQAFVESLGLTFNPYTTQIEPHDYMAELFDALRRYNTILIDFNRDVWGYISLGYFKQKLKDGEVGSSTMPHKVNPIDFENSEGNLGIANAVLGHLGEKLPVSRWQRDLTDSTVLRNMGVGFAQSLIAFDACLKGIGKLELNAARLAEDLNQAQEVLAEPIQTVMRRYNVEKPYEKLKALTRGQAMTRDMMVNFVNGDELSQVPAEERARLAEMTPASYTGNAADQAKQINDLINKI,not soluble
14,MNATAVAAAATGRQLHKFGGSSLADVKCYLRVANIMANYSHPGDLMVVSAAGSTTNQLISWLKLSQNDRLSAHQVQQSLRRYQHDLINGLLPPEMAEPLISEFIHDLERLAGLLDNKIDDVIYAEVVGHGEIWSARLMSALLNKLDMDAVWLDARRFLRAERAAQPQIDESRSYPLLQQLMAQHPHQRLVVTGFISRNEAGETVLLGRNGSDYSATQVGALAGAERVTIWSDVAGVYSADPRKVKDACLLPLLRLDEASELARLAAPVLHTRTLQPVSGSDIDLQLRCSYQPEQGSTRIERVLASGLGAKIVTSHDDVCLIELQIASHHDFSLAQKEIDLLLKRAQIKPLATGIHPDRNLLQLCYTSEVVNSALRVLEDAALPGKLSLREGLALVALVGAGVSKNPLHSHRFYQQLKDQPVEFVWQAEDGISMVAVLRLGPTEHLIQGLHQSLFRAEKRIGLMLFGKGNIGARWLELFAREQKSLSARSGFEFVLAGVVDSRRSLLSYDGLDASRTLAFYNDEAKEQDEESLFLWMRAHPFDDLVVLDVTASPSLAEQYLDFASYGFHVISANKLAGASSSNNYRQIRDAFAKTGRHWLYNATVGAGLPVNHTVRDLRDSGDSILAISGIFSGTLSWLFLQFDGSVPFTELVDQAWQQGLTEPDPRVDLSGQDVMRKLVILAREAGYDIEPNQVRVESLVPAGAESGSVDQFFENGEALNQQMIQRLEAAKEMGLVLRYVARFDANGKARVGVEAVRTDHPLASLLPCDNVFAIESRWYRDNPLVIRGPGAGRDVTAGAIQSDLNRLSQLL,not soluble
15,MNDNEIGNPPIKALIVFRENGDTDNLFVPILCDAIRTTGIDVRCSTNEFWNSDTPYDIIHFQWPEEVMEGNCDDPDRICRLKECIAFFRSRGARFVYTRHNVRPHDANEVIGRAYDIIEEQSDVVVHMGRYSLDEFAAKHADSRNVIIPHPIYQYTYKEDISVERARQYLNLPQEAFIVTSFGKFRNREERRMVTGAFRKWDEAKKFLLAPRLYPFSRFNRYGSNFFKRWTSRAGYYLLIPLLNRLRRMHAGASDEPIDNCDLPYYMAASDVIFIQRKDILNSASIPLAFLFHKVVIGPNIGNIGEILQDTGNPVFHPDNQFDIIRALEAARQLSARRKGEDNYAYAIENMNSGKIGKEYAELYRNLANLSL,not soluble
16,MNECGHCSVKVGEESAILTNGKVWHVNHLLCDLCNCRINDGERCVPQNGVILCSECHIKTTRPICKGCGEFIKTNLCEALNSTWHPTCFQCSVCQKPLEVDFHQLPNRMCVHSDCFWDLQLRMIVCKDLPK,not soluble
17,MNEDNSPSSNEGKKEKAEGPSRKSFFERLGQLFQGEPKDRQELVDVIRDSEVNDLIDHDTRDMLEGVMEISEMRVRDIMIPRSQMVTVERTDDLDTLIALITDAQHSRYPVISEDKDHVEGILLAKDLLKYLGSGSNPFDIEEVIRPAVVVPESKRVDRLLKEFREERYHMAIVVDEFGGVSGLVTIEDILEEIVGDIEDEFDESEETDIRKLSKHTFAVRALTTIEEFNETFGTNFSDEEVDTVGGMVMTAFGHLPSRGELVEIEGYNFKVTAADNRRVIQLQVTIPDEETLVEATQE,not soluble
18,MNEIIMLLRTIPTSKLIQPIMQLFIDNAILNIVQNDALLIEKATHARNHLRLWSLQGHRDIPNLEHHHHHH,not soluble
19,MNEIKNLKQYSKAAERFEGAHLLCPGCAHGMIVREVLNATDDPLILSSATGCLEVSTAVYPYTSWDVPWIHIGFENSSTAVAGAEAMYKALERKGKLYSEKKPKFVAFGGDGSTYDIGFQYISGCFERGHNMTYICLDNEVYANTGGQRSGSTPIGASTTTTPAGRVSYGKKDKKKDILQIMAAHGAPYVAQVAPNKWKDMAKKLKMALETEGPTFINAMSACTTEWKFESNLTVEVSDLAVDSLVFPLYEIINGTELNITYRPKNIVPVRDYLAAQGRFKHLFKKENEHIIEQWQKEVDARWVYLQKREEARV,not soluble
20,MNEKEKIIEYWRRRARECLDDAKLLLKNERLHSAVNRIYYALFYQVSALLLAKGLSFSKHSGVLAAFNREFVKTGKVNKELGKFYNRMFEHRKTGDYGELVEFEEENVKDWIRKAEGFLDAIEKLIEDLKRA,not soluble
21,MNELTGADFKSATADDNKKLFIETYGCQMNVADSEVIASVMQMAGYSVAETLEEADAVFMNTCSIRDNAEQKILNRLEFFHSMKKKKKHLIVGVLGCMAERVKDDLIEHHHVDLVVGPDAYLTLPELIASVEAGEKAMNVELSTTETYRDVIPSRICGNHISGFVSIMRGCNNFCTYCIVPYTRGRERSRDVESILNEVADLVSKGYKEITLLGQNVNSYRFEKEGGEVVTFPMLLRLVAEAAPGIRVRFTTSHPKDMSDETLEVIAQVPNVCKHIHLPVQSGSSRILKLMNRKYTREWYLDRVAAIKRIVPDCGLTTDIFSGFHSETEEDHRESLSLMEACGYDAAFMFKYSERPGTYASKHLEDNVPEEIKVRRLNEIIALQNRLSAESNNRCIGKTYEVLVEGVSKRSRDQLFGRTEQNRVVVFDRGTHRIGDFVNVRITEASSATLKGEEVFSLEHHHHHH,not soluble
